Residue numbers refer to the chain shown, from its start. Each block holds one binder with its values, some of them ahead of it.
Target: T1, human Claudin 18.2 (human, UniProt P56856-2 1-261)
T1 construct: whole, on cells
T1 sequence (looked up): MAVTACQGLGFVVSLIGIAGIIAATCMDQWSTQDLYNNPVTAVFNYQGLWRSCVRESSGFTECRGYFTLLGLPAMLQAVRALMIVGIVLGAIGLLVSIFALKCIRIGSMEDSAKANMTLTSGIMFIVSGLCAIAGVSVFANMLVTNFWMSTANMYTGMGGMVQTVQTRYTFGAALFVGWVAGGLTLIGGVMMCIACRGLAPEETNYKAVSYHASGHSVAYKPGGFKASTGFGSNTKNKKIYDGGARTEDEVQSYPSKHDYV
Test: flow cytometry (iQue) on cells, antibody from 100 nM in 5-fold steps; cell line not named in Example 5
Procedure: The cells at logarithmic growth phase were taken, blocked with 3% BSA for 30 minutes, plated at 5×10⁴ cells/100 μL into a U-shaped 96-well plate, centrifuged at 1100 rpm for 3 minutes, the supernatant was discarded, the cells were gently patted and loosed, 50 μL of antibody diluted according to the series was added to each well (antibody concentration starts from 100 nM, 5 times dilution in 8 series), incubated at 4° C. for 1 hour. After the incubation, 140 μL of 0.5% BSA was added to each well to wash 3 times, AF 647 APC anti-human secondary antibody was added with 30 μL/well and incubated at 4° C. for 40 minutes. After the incubation, 140 μL of 0.5% BSA was added to each well to wash 3 times, and finally resuspended each well with 50 μL PBS for iQue (Intellicyt, USA) detection (shown in Table 2).

- EC50: 0.773 nM
B1: h15F9.v25 (antibody, V domains shown)
VH: QIQLVQSGSELKKPGASVKVSCKASGYTFTNYGINWVRQAPGQGLEWMGWINPNTGETTYAEGFTGRFVLSWDTSVSTAYLQISSLKAEDTAVYFCARLYYGNRFDSWGQGTLVTVSS
VL: DIVMTQSPDSLAVSLGERATINCKSSQSLLNSGNQRNYLAWYQQKPGQPPKLLIYWASTRESGVPDRFSGSGSGTDFTLTISSLQAEDVAVYYCQQAYYYPLTFGGGTKVEIK
notes: Humanized; also called 15F9VLv2 + 15F9VHv5

- EC50: 0.912 nM
B2: 18D10.V13 (antibody, V domains shown)
VH: QVQLQESGPGLVKPSETLSLTCTVSGGSISSNYAWNWIRQPPGKGLEWIGYINYSGNTNYNPSLKSRVTISRDTSKNQFSLKLSSVTAADTAVYYCATSYYGNSFIYWGQGTLVTVSS
VL: B1 VL with R36K, A40T, Q96N, Y99S, Y100F, L102W, G106Q
notes: Humanized; also called 18D10VLv1 + 18D10VHv3

- EC50: 0.913 nM
B3: h18A9.v12 (antibody, V domains shown)
VH: QVQLVQSGAEVKKPGSSVKVSCKPSGYTFTNYLIDWVRQAPGQGLEWMGGINPGSGDTVYNEKFQGRVTLTADESTSTAYMELSSLRSEDTAVYFCARRVRGNSFDSWGQGTLVTVSS
VL: B1 VL with R36K, A40T, T75K, Q96N, A97N, Y99F
notes: Humanized; also called 18A9VLv1 + 18A9VHv2

- EC50: 0.645 nM
B4: h18A9.v11 (antibody, V domains shown)
VH: B3 VH with T28A, E74K, T76S, S77M
VL: B1 VL with R36K, A40T, T75K, Q96N, A97N, Y99F
notes: Humanized; also called 18A9VLv1 + 18A9VHv1

- EC50: 0.964 nM
B5: h18A9.v25 (antibody, V domains shown)
VH: B3 VH with L70I
VL: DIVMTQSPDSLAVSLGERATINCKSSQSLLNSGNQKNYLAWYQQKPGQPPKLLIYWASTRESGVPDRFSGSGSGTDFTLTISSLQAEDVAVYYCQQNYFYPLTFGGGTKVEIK
notes: Humanized; also called 18A9VLv2 + 18A9VHv5

- EC50: 1.9 nM
B6: 18D10.V22 (antibody, V domains shown)
VH: B2 VH with I49M, V68I
VL: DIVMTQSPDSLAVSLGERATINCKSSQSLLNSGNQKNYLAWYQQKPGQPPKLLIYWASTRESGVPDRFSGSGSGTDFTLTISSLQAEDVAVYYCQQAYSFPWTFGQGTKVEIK
notes: Humanized; also called 18D10VLv2 + 18D10VHv2

- EC50: 0.982 nM
B7: 18D10.V23 (antibody, V domains shown)
VH: B2 VH
VL: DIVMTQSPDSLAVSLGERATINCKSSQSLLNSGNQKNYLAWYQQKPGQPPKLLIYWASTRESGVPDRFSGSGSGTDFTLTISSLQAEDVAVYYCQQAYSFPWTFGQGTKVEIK
notes: Humanized; also called 18D10VLv2 + 18D10VHv3

- EC50: 1.93 nM
B8: 18D10.V24 (antibody, V domains shown)
VH: B2 VH with N57Y
VL: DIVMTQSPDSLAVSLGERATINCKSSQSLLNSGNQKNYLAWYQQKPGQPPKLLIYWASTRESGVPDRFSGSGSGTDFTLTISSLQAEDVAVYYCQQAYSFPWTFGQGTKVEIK
notes: Humanized; also called 18D10VLv2 + 18D10VHv4

- EC50: 1.26 nM
B9: 18D10.V25 (antibody, V domains shown)
VH: B2 VH with N59A
VL: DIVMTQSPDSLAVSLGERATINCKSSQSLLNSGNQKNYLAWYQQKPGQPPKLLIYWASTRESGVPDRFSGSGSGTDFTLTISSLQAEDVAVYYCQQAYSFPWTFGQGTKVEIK
notes: Humanized; also called 18D10VLv2 + 18D10VHv5

- EC50: 1.74 nM
B10: 18D10.V14 (antibody, V domains shown)
VH: B2 VH with N57Y
VL: B1 VL with R36K, A40T, Q96N, Y99S, Y100F, L102W, G106Q
notes: Humanized; also called 18D10VLv1 + 18D10VHv4

- EC50: 2.31 nM
B11: 18D10.V16 (antibody, V domains shown)
VH: B2 VH with N53Y
VL: B1 VL with R36K, A40T, Q96N, Y99S, Y100F, L102W, G106Q
notes: Humanized; also called 18D10VLv1 + 18D10VHv6

- EC50: 1.03 nM
B12: h18A9.v21 (antibody, V domains shown)
VH: B3 VH with T28A, E74K, T76S, S77M
VL: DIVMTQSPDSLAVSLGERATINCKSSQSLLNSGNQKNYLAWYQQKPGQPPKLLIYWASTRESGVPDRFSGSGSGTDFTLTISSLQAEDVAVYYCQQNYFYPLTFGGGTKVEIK
notes: Humanized; also called 18A9VLv2 + 18A9VHv1

- EC50: 1.07 nM
B13: 18D10.V21 (antibody, V domains shown)
VH: B2 VH with G27Y, S30T
VL: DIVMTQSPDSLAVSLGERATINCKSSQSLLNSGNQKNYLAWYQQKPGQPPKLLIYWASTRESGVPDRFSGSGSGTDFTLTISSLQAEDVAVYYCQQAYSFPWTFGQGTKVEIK
notes: Humanized; also called 18D10VLv2 + 18D10VHv1

- EC50: 0.822 nM
B14: h18A9.v22 (antibody, V domains shown)
VH: B3 VH
VL: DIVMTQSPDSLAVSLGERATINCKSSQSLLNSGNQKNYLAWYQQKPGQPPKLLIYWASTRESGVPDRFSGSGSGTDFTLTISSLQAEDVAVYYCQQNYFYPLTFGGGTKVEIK
notes: Humanized; also called 18A9VLv2 + 18A9VHv2

- EC50: 0.705 nM
B15: h15F9.v16 (antibody, V domains shown)
VH: B1 VH with N54G
VL: B1 VL with A40T, Q96N
notes: Humanized; also called 15F9VLv1 + 15F9VHv6

- EC50: 1.67 nM
B16: h15F9.v15 (antibody, V domains shown)
VH: B1 VH
VL: B1 VL with A40T, Q96N
notes: Humanized; also called 15F9VLv1 + 15F9VHv5

- EC50: 1.02 nM
B17: h15F9.v26 (antibody, V domains shown)
VH: B1 VH with N54G
VL: B1 VL
notes: Humanized; also called 15F9VLv2 + 15F9VHv6

- EC50: 0.646 nM
B18: h18A9.v27 (antibody, V domains shown)
VH: B3 VH with S16A, E74T, A79V
VL: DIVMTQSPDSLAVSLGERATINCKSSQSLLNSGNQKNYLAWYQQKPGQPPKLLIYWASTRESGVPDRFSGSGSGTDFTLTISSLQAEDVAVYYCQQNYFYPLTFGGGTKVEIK
notes: Humanized; also called 18A9VLv2 + 18A9VHv7

- EC50: 0.951 nM
B19: h15F9.v35 (antibody, V domains shown)
VH: B1 VH
VL: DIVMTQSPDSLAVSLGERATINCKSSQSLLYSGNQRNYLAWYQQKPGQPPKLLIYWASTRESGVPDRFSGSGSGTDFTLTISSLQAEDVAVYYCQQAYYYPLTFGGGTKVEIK
notes: Humanized; also called 15F9VLv3 + 15F9VHv5

- EC50: 1.68 nM
B20: 18D10.V12 (antibody, V domains shown)
VH: B2 VH with I49M, V68I
VL: B1 VL with R36K, A40T, Q96N, Y99S, Y100F, L102W, G106Q
notes: Humanized; also called 18D10VLv1 + 18D10VHv2

- EC50: 0.761 nM
B21: h18A9.v13 (antibody, V domains shown)
VH: B3 VH with E74K, T76S, S77M, F95Y
VL: B1 VL with R36K, A40T, T75K, Q96N, A97N, Y99F
notes: Humanized; also called 18A9VLv1 + 18A9VHv3

- EC50: 0.786 nM
B22: h15F9.v36 (antibody, V domains shown)
VH: B1 VH with N54G
VL: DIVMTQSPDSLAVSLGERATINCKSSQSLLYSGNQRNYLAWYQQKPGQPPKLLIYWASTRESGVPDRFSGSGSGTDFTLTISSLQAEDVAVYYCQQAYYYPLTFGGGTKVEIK
notes: Humanized; also called 15F9VLv3 + 15F9VHv6

- EC50: 2.06 nM
B23: h18A9.v24 (antibody, V domains shown)
VH: B3 VH with P24A, E74K, T76S, S77M
VL: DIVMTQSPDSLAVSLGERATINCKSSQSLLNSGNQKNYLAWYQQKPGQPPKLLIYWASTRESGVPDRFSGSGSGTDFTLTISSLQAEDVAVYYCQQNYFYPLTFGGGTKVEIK
notes: Humanized; also called 18A9VLv2 + 18A9VHv4

- EC50: 1.87 nM
B24: 18D10.V26 (antibody, V domains shown)
VH: B2 VH with N53Y
VL: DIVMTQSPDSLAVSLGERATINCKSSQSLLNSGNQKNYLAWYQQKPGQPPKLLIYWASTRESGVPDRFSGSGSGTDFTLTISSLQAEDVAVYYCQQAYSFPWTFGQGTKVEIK
notes: Humanized; also called 18D10VLv2 + 18D10VHv6

- EC50: 1.13 nM
B25: 18D10.V11 (antibody, V domains shown)
VH: B2 VH with G27Y, S30T
VL: B1 VL with R36K, A40T, Q96N, Y99S, Y100F, L102W, G106Q
notes: Humanized; also called 18D10VLv1 + 18D10VHv1

- EC50: 0.548 nM
B26: h18A9.v14 (antibody, V domains shown)
VH: B3 VH with P24A, E74K, T76S, S77M
VL: B1 VL with R36K, A40T, T75K, Q96N, A97N, Y99F
notes: Humanized; also called 18A9VLv1 + 18A9VHv4

- EC50: 1.17 nM
B27: h18A9.v23 (antibody, V domains shown)
VH: B3 VH with E74K, T76S, S77M, F95Y
VL: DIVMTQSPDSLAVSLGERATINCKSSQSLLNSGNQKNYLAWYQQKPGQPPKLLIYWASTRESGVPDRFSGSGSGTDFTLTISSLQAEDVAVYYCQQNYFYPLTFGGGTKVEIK
notes: Humanized; also called 18A9VLv2 + 18A9VHv3

- EC50: 1.65 nM
B28: h15F9.v15r2 (antibody, V domains shown)
VH: B1 VH with Q1E, I2V, N54Y, G63E, T65K, L70F, W72L
VL: B1 VL with A40T, Q96N
notes: Humanized; also called 15F9VLv1 + 15F9VHv5r2

- EC50: 0.799 nM
B29: h18A9.v16 (antibody, V domains shown)
VH: B3 VH with S16A, T28A, E74K, T76S
VL: B1 VL with R36K, A40T, T75K, Q96N, A97N, Y99F
notes: Humanized; also called 18A9VLv1 + 18A9VHv6

- EC50: 1.61 nM
B30: h15F9.v25r2 (antibody, V domains shown)
VH: B1 VH with Q1E, I2V, N54Y, G63E, T65K, L70F, W72L
VL: B1 VL
notes: Humanized; also called 15F9VLv2 + 15F9VHv5r2

- EC50: 0.879 nM
B31: h15F9.v35r2 (antibody, V domains shown)
VH: B1 VH with Q1E, I2V, N54Y, G63E, T65K, L70F, W72L
VL: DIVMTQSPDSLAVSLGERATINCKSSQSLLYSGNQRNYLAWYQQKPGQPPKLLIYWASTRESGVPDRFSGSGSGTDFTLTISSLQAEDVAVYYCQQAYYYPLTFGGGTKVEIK
notes: Humanized; also called 15F9VLv3 + 15F9VHv5r2

- EC50: 1.72 nM
B32: h15F9.v25r1 (antibody, V domains shown)
VH: B1 VH with I2V, G63E, T65K, L70F, W72L
VL: B1 VL
notes: Humanized; also called 15F9VLv2 + 15F9VHv5r1

- EC50: 2.53 nM
B33: h15F9.v15r1 (antibody, V domains shown)
VH: B1 VH with I2V, G63E, T65K, L70F, W72L
VL: B1 VL with A40T, Q96N
notes: Humanized; also called 15F9VLv1 + 15F9VHv5r1

- EC50: 1.41 nM
B34: h18A9.v26 (antibody, V domains shown)
VH: B3 VH with S16A, T28A, E74K, T76S
VL: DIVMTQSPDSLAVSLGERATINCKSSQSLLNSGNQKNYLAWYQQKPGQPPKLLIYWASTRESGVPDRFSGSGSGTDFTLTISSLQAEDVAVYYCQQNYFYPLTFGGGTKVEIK
notes: Humanized; also called 18A9VLv2 + 18A9VHv6

- EC50: 1.41 nM
B35: h18A9.v15 (antibody, V domains shown)
VH: B3 VH with L70I
VL: B1 VL with R36K, A40T, T75K, Q96N, A97N, Y99F
notes: Humanized; also called 18A9VLv1 + 18A9VHv5

- EC50: 2.69 nM
B36: 18D10.V15 (antibody, V domains shown)
VH: B2 VH with N59A
VL: B1 VL with R36K, A40T, Q96N, Y99S, Y100F, L102W, G106Q
notes: Humanized; also called 18D10VLv1 + 18D10VHv5

- EC50: 1.2 nM
B37: h15F9.v35r1 (antibody, V domains shown)
VH: B1 VH with I2V, G63E, T65K, L70F, W72L
VL: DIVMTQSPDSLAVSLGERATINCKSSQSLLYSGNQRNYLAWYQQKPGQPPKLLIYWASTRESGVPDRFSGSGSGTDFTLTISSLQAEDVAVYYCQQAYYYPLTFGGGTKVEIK
notes: Humanized; also called 15F9VLv3 + 15F9VHv5r1

- EC50: 1.43 nM
B38: h18A9.v17 (antibody, V domains shown)
VH: B3 VH with S16A, E74T, A79V
VL: B1 VL with R36K, A40T, T75K, Q96N, A97N, Y99F
notes: Humanized; also called 18A9VLv1 + 18A9VHv7

From patent US20220372112A1 (KEYMED BIOSCIENCES, published 2022)
